Results on 1 molecule are retold here after patent US20260166084A1 (INSTITUTE OF CANCER RESEARCH ROYAL CANCER HOSPITAL, published 2026).

For assay [1], the target named is T1, CRBN/DDB1 protein complex (no IMiD) (UniProt Q96SW2 1-442; Q16531 1-1140, limits assumed).
T1 construct: As used in the SEC sample without iberdomide; also called CRBN/DDB1 complex
The experiment in a line: size exclusion chromatography (Superose 6) with SDS-PAGE of fractions, no iberdomide. For orientation: Size exclusion chromatography separates by hydrodynamic size, large species first.
Protocol: Purified CRBN/DDB1 protein complex and iTAG2 protein were mixed together and subjected to SEC in the presence or absence of iberdomide, shown in FIG. 14.
100 μM iberdomide was included in one of the samples and both were incubated on ice for 1 hour, then centrifuged at 21000 g for 10 minutes prior to injection to remove potential aggregates. The Superose 6 column was pre-equilibrated in the same buffer (20 mM HEPES pH 7.0, 200 mM NaCl and 1 mM TCEP) at a flow rate of 0.25 mL/min before injection of 50 μL of each sample.

Assay [2] has as its target T2, complex formed between CRBN/DDB1 and iberdomide (UniProt Q96SW2 1-442; Q16531 2-1140, limits assumed).
T2 construct: mature; also called CRBN/DDB1 in the presence of iberdomide; CRBN/DDB1 with CC-220
The experiment in a line: TR-FRET displacement of Sulfo-Cy5 Aiolos peptide probe from CRBN/DDB1 with 10 uM iberdomide. The figure is told overall for the three IMiDs. The protocol:
(§1) All TR-FRET assays were ran in Black 384-well ProxiPlate Plus (Perkin-Elmer, USA), in a buffer containing 20 mM HEPES pH 8.0, 150 mM NaCl, 0.5 mM TCEP, 0.05% Tween 20 and 0.05% BSA, with a final assay volume of 10 μL. An Echo E550 (Beckman Coulter, USA) acoustic liquid dispenser was used to create final concentration ranges from 82 μM down to 2.05 nM for iTAG1 and 27 μM down to 0.68 nM for iTAG2. […] Finally, IMiDs were added to a final concentration of 10 μM with the Echo. Plates were sealed, centrifuged at 200 g for 1 min and stored overnight at 4° C. The TR-FRET signals were read using a PHERAstar FSX plate reader (BMG Labtech, Germany).
On the technique in general: In TR-FRET formats the signal depends on donor and acceptor labels being close together.

The target of assay [3] is T3, complex formed between CRBN/DDB1 and lenalidomide (UniProt Q96SW2 1-442; Q16531 2-1140, limits assumed).
T3 construct: mature; Same proteins as m3 with 10 uM lenalidomide. 'mature' stands for the printed 'WT full length'; also called CRBN/DDB1 in the presence of lenalidomide
The assay can be described thus: TR-FRET displacement of Sulfo-Cy5 Aiolos peptide probe from CRBN/DDB1 with 10 uM lenalidomide. The figure is told overall for the three IMiDs. As to the method:
as §1

The target in assay [4] is T4, complex formed between CRBN/DDB1 and pomalidomide (UniProt Q96SW2 1-442; Q16531 2-1140, limits assumed).
T4 construct: mature; Same proteins as m3 with 10 uM pomalidomide. 'mature' stands for the printed 'WT full length'; also called CRBN/DDB1 in the presence of pomalidomide
The assay can be described thus: TR-FRET displacement of Sulfo-Cy5 Aiolos peptide probe from CRBN/DDB1 with 10 uM pomalidomide. The figure is told overall for the three IMiDs. As to the method:
as §1

T1 sequence (Q96SW2 whole entry, chain 1 of 2): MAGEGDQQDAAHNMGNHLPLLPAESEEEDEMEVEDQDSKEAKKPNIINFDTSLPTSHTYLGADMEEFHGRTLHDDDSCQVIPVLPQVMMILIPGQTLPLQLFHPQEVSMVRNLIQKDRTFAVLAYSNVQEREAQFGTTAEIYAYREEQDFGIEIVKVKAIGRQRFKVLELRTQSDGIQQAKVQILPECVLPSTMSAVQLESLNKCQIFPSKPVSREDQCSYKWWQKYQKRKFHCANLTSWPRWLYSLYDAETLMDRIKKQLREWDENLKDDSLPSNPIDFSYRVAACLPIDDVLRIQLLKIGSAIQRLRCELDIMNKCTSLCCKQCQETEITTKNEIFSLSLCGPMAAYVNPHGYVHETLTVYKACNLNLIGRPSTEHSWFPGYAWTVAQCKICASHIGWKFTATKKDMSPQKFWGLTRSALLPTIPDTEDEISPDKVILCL
T1 sequence (Q16531 whole entry, chain 2 of 2): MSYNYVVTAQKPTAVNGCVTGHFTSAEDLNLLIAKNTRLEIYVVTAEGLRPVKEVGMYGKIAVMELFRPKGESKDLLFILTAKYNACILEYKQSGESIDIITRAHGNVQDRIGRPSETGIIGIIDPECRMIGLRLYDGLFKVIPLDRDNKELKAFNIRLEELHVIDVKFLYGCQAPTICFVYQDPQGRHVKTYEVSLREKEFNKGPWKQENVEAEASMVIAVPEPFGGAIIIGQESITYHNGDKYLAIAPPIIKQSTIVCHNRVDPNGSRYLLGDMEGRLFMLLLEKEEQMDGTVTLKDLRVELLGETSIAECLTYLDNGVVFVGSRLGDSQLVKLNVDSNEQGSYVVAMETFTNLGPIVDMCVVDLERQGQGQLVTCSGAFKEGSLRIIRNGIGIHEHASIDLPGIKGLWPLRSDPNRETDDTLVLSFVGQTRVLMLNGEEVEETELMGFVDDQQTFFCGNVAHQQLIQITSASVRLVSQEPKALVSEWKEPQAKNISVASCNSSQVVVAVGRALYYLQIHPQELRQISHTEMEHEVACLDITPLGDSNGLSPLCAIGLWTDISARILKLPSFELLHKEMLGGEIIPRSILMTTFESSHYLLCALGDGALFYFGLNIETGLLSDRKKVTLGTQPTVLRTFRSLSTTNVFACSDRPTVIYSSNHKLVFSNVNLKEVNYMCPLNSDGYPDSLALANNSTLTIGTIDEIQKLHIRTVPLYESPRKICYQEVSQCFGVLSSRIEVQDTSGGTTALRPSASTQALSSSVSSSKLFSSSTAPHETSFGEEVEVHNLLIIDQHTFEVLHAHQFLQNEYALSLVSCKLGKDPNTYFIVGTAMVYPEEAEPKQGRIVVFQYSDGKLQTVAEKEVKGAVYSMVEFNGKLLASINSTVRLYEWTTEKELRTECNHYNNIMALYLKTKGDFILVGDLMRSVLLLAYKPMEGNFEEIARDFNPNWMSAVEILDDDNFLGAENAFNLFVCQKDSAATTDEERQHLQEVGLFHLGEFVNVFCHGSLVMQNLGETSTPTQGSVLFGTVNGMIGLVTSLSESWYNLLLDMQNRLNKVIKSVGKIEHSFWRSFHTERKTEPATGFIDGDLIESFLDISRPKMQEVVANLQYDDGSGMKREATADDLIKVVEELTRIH
T2 sequence (Q96SW2 whole entry, chain 1 of 2): as the sequence (Q96SW2 whole entry, chain 1 of 2) above
T2 sequence (Q16531 2-1140 limits assumed, chain 2 of 2): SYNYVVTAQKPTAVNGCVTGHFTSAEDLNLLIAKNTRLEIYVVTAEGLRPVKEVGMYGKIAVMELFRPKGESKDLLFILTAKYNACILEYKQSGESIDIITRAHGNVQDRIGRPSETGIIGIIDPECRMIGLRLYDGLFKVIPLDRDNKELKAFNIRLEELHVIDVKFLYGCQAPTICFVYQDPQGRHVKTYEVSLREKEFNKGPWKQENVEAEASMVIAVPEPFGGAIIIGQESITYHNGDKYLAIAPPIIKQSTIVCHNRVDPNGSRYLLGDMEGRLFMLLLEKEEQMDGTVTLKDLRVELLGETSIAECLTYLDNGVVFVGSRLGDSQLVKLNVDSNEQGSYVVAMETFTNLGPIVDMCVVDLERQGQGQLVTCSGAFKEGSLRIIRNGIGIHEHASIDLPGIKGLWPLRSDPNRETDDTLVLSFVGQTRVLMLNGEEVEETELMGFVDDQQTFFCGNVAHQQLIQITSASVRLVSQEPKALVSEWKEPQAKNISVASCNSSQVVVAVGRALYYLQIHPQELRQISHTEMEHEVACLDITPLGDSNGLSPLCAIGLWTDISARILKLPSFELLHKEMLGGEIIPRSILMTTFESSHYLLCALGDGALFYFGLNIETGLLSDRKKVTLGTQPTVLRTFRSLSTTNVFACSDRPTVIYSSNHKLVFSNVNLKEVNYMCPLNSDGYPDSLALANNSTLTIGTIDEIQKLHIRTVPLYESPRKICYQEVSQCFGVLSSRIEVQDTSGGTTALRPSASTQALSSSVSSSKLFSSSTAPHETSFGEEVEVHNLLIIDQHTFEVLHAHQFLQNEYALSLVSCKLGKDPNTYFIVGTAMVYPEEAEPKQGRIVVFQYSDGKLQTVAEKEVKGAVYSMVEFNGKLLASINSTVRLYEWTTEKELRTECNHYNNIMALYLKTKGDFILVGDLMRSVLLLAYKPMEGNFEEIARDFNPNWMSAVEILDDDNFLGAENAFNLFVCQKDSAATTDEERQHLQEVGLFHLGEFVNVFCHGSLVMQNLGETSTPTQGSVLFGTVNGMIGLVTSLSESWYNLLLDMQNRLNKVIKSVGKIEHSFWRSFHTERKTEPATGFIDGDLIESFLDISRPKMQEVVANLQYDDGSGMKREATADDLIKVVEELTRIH
T3 sequence (Q96SW2 whole entry, chain 1 of 2): as the sequence (Q96SW2 whole entry, chain 1 of 2) above
T3 sequence (Q16531 2-1140 limits assumed, chain 2 of 2): as the sequence (Q16531 2-1140 limits assumed, chain 2 of 2) above
T4 sequence (Q96SW2 whole entry, chain 1 of 2): as the sequence (Q96SW2 whole entry, chain 1 of 2) above
T4 sequence (Q16531 2-1140 limits assumed, chain 2 of 2): as the sequence (Q16531 2-1140 limits assumed, chain 2 of 2) above

B1: iTAG2 (DCD23mut) (designed binder)
chain: PNVLMVHNESHTGEIPLQCEICGFTCEQAGNLLNHIELHSGEIPFKCHLCNYACRRRDAL
notes: Purified iTAG2 protein
Consider B1, for which, in assay [1], the binding result is “no binding (tested: CRBN/DDB1 at 15 uM and iTAG2 at 50 uM)”. The “fold difference of IC50 against iTAG1” value in assay [2], in assay [3] and in assay [4] was roughly 10 fold each time.
